In patent US20230000916A1 (University of Pennsylvania, published 2023):

Target: T1, F12Q CAR
T1 construct: also called F12Qz CAR; F12Q chimeric receptor
Assay: flow cytometry; K562.64.86.F12Qz cells stained with soluble biotinylated CD3 epsilon, then streptavidin-PE

- binding result: binds
B1: Biotinylated Human CD3 epsilon Protein (AcroBiosystems Cat #CDE-H82E1) (other, UniProt P07766 23-126, looked up)
chain: DGNEEMGGITQTPYKVSISGTTVILTCPQYPGSEILWQHNDKNIGGDEDDKNIGSDEDHLSLKEFSELEQSGYYVCYPRGSKPEDANFYLYLRARVCENCMEMD
modifications: biotinylated
notes: Bought reagent; also called soluble CD3-epsilon protein; soluble, biotinylated CD3ε protein
